“Also recorded” adds a separate entry of the source.
Assays:
[1] = tested on: primer-template duplex with matched or mismatched 3′ terminus; test: Steady-state extension kinetics, gel-based assay; assay type: biochemical; conditions: incorporated base is dCTP
Procedure: Kinetic parameters were determined using a gel-based assay essentially as described (16). Primers 15, 16, 17 (3′ base=G, C, A respectively) were ^32P-labeled and annealed to one of template strands 18, 19, 20 (template base=C, G, A respectively) or 21 (template base C different context). Duplex substrates were used at 50 nM final concentration in 1× Taq buffer with various concentrations of enzyme and dNTP. Reactions were carried out at 60° C. for times whereby <20% of primer-template was utilized at the highest concentration of dNTP.
Extension and incorporation kinetics of M1 and M4 for a selection of mismatches were measured using a gel-based steady-state kinetic assay (Goodman) (Tables 1 & 2). M1 and M4 respectively extend a C•C mispair 390 and 75-fold more efficiently than wtTaq. […] The gain in extension efficiency derives predominantly from increased relative Vmax values for the mutant polymerases, while Km for nucleotide substrates remains largely unchanged. For most DNA polymerases the relative efficiency of extending a given mispair (f0ext) is similar to the relative efficiency of forming it (finc) (Goodman 1993, Goodman 1990, Washington 2001). Indeed, M1 and M4 respectively incorporate dCTP opposite template base C 206- and 29-fold more efficiently than wtTaq (Table 2).

undamaged template = test: Translesion replication assay, control; assay type: biochemical; conditions: gel-extension assay, 60° C.
Procedure: Template primers 22 (undamaged) or 23 (containing a synthetic abasic site) were synthesized by Lofstrand Laboratories (Gaithersburg, Md.). Template primer 24 (containing a single cis-syn thymine dimer), was synthesized as described (34). Primer 25 was ^32P-labeled and annealed to one of the three templates 22, 23, 24 (at a primer template ratio of molar 1:1.5) and extended in 40 mM Tris.HCl at pH 8.0, 5 mM MgCl2, 100 μM of each dNTP, 10 mM DTT, 250 μg/ml BSA, 2.5% glycerol, 10 nM primer-template DNA and 0.1 Unit of polymerase at 60° C. for various times.

[2] = tested on: primer-template DNA substrates; test: Processivity primer extension assay with and without trap DNA; assay type: biochemical
Procedure: Processivity was measured using a primer extension assay the presence and absence of trap DNA. Termination probabilities were calculated according to the method of Kokoska et al.
Oligonucleotide primer 32 (5′-GCGGTGTAGAGACGAGTGCGGAG-3′) (SEQ ID NO: 117) was ^32P-labelled and annealed to the template 33 (5′-CTCTCACAAGCAGCCAGGCAAGCTCCGCACTCGTCTCTACACCGCTCCGC-3′ (SEQ ID NO: 118)) (at a primer/template ratio of molar 1/1.5). wtTaq (0.0025 nM; 0.025 nM; 0.25 nM), M1(0.05 nM; 0.5 nM; 5 nM), and M4 (0.05 nM; 0.5 nM; 5 nM) were preincubated with the primer-template DNA substrates (10 nM) in 10 mM Tris-HCl at pH 9.0, 5 mM MgCl2, 50 mM KCl, 0.1% Triton X 100 at 25° C. for 15 min. Reactions were initiated by addition of 100 μM dNTPs with or without trap DNA (1000-fold excess of unlabeled primer-templates). Reactions were performed at 60° C. for 2 min. […] Thus, in the presence of trap DNA, all DNA synthesis resulted from a single DNA binding event. Gel band intensities were calculated using a Phosphoimager and ImageQuant (both Molecular Dynamics) software. Percentage of polymerase molecules, which extended primers to the end of the template was calculated using the formula: In×100%/(I1+I2+ . . . +In), where In is the intensity of the band at position 22 or 23; I1, I2 . . . is the intensity of the band at position 1, 2 . . . . Termination probabilities (τ) were calculated according to the method of Kokoska et al^1, whereby t at a particular template position was calculated as the intensity of the band at this position divided by the sum of the intensity of this band and the band intensities of all longer products.

[3] = tested on: primers with 3′ transversion mismatches; test: Mismatch extension PCR assay; assay type: biochemical; conditions: G•A, C•C, G•G mismatched primers
Procedure: (§1) A PCR assay was used to screen and rank clones. Briefly, clones were normalized for activity in PCR with matched primers 3, 4 and activity with mismatched primers 1 and 2 (1 μM each) determined at minimal cycle number (15-25 cycles). Extension capability for different mismatches was determined by the same assay using mismatch primers 2 (C•C mismatch), 5 (A•A mismatch), 6 (G•G mismatch), 7 (G•A mismatch) with matched primer 3 or primer 1 (A•G mismatch) with matched primer 4. Incorporation of unnatural substrates in 50 cycle PCR was carried out using standard conditions and 50 μM […] dNTPs (Promega) or 50 μM FITC-12-dATP (Perkin-Elmer), Rhodamine-5-dUTP (Perkin-Elmer) or Biotin-16-dUTP (Roche) with equivalent amounts of the other 3 dNTPs (all 50 μM). Long PCR was carried out using a two-step cycling protocol as described (22) 94° C. for 2 minutes, followed by 20 cycles of (94° C. 15 sec, 68° C. 30 min) using 5 ng of phage λ DNA (New England Biolabs) template and either primers 9, 10, 11 with primer 12 or primer 13 with primers 10, 14.

[4] = PCR with all four dNTPs replaced by αS dNTPs; assay type: biochemical; conditions: 50 cycle PCR, 50 μM αS dNTPs
Procedure: as §1

[5] = biological target: matched and mismatched primer-template duplex; test: Template affinity equilibrium binding assay; conditions: not shown
Procedure: An equilibrium binding assay (12) was used to determine relative affinity of polymerases for the mismatched primer-templates used in the kinetics assays. Polymerases were preincubated at 60° C. in 1× Taq buffer with 50 nM ^32P-labeled matched primer-template and 50 nM unlabeled mismatched competitor primer-templates. Reactions were initiated by simultaneous addition of dCTP (200 μM) and trap DNA (XbaI/SalI-restricted sheared salmon sperm DNA, 4.5 mg/ml).

[6] = 3′-terminal base pair C · G (template base: 3′ primer base), matched

- Ratio of fext, fext (mutant polymerase)/fext (wtTaq) ([1]; 3′-terminal base pair A · A): 3.6
- Ratio of fext, fext (mutant polymerase)/fext (wtTaq) ([1]; 3′-terminal base pair A · G): 6.2
- Ratio of fext, fext (mutant polymerase)/fext (wtTaq) ([1]; 3′-terminal base pair C · C): 390
- Ratio of fext, fext (mutant polymerase)/fext (wtTaq) ([1]; 3′-terminal base pair G · A): 13.3
- Ratio of fext, fext (mutant polymerase)/fext (wtTaq) ([1]; 3′-terminal base pair G · G): 22.5
- bound polymerase that extended primers to the end of the template ([2]; in the presence of trap DNA (single DNA binding event)): 28%
- dissociation constants for matched and mismatched primer-template duplex [5]: indistinguishable
B1: M1: Taq mutant G84A, D144G, K314R, E520G, F598L, A608V, E742G; SEQ ID NO: 1 (protein)
chain: MRGMLPLFEPKGRVLLVDGHHLAYRTFHALKGLTTSRGEPVQAVYGFAKSLLKALKEDGDAVIVVFDAKAPSFRHEAYGGYKAARAPTPEDFPRQLALIKELVDLLGLARLEVPGYEADDVLASLAKKAEKEGYEVRILTADKGLYQLLSDRIHVLHPEGYLITPAWLWEKYGLRPDQWADYRALTGDESDNLPGVKGIGEKTARKLLEEWGSLEALLKNLDRLKPAIREKILAHMDDLKLSWDLAKVRTDLPLEVDFAKRREPDRERLRAFLERLEFGSLLHEFGLLESPKALEEAPWPPPEGAFVGFVLSRREPMWADLLALAAAAGGRVHRAPEPYKALRDLKEARGLLAKDLSVLALREGLGLPPGDDPMLLAYLLDPSNTTPEGVARRYGGEWTEEAGERAALSERLFANLWGRLEGEERLLWLYREVERPLSAVLAHMEATGVRLDVAYLRALSLEVAEEIARLEAEVFRLAGHPFNLNSRDQLERVLFDELGLPAIGKTEKTGKRSTSAAVLGALREAHPIVEKILQYRELTKLKSTYIDPLPDLIHPRTGRLHTRFNQTATATGRLSSSDPNLQNIPVRTPLGQRIRRAFIAEEGWLLVVLDYSQIELRVLAHLSGDENLIRVFQEGRDIHTETASWMFGVPREAVDPLMRRAAKTINFGVLYGMSAHRLSQELAIPYEEAQAFIERYFQSFPKVRAWIEKTLEEGRRRGYVETLFGRRRYVPDLEARVKSVRGAAERMAFNMPVQGTAADLMKLAMVKLFPRLEEMGARMLLQVHDELVLEAPKERAEAVARLAKEVMEGVYPLAVPLEVEVGIGEDWLSAKE
modifications: Mutant Thermus aquaticus DNA polymerase
- Vmax ([1]; 3′-terminal base pair A · A (template base: 3′ primer base)): 1.5 % Min^−1
- Km ([1]; 3′-terminal base pair A · A): 40.9 µM
- fext, f (mismatched 3′terminus)/f (matched terminus) ([1]; 3′-terminal base pair A · A): 2.4 × 10^−6
- Vmax ([1]; 3′-terminal base pair A · G (template base: 3′ primer base)): 44.6 % Min^−1
- Km ([1]; 3′-terminal base pair A · G): 280 µM
- fext, f (mismatched 3′terminus)/f (matched terminus) ([1]; 3′-terminal base pair A · G): 1.3 × 10^−6
- Vmax ([1]; 3′-terminal base pair C · C (template base: 3′ primer base)): 9.2 % Min^−1
- Km ([1]; 3′-terminal base pair C · C): 25.8 µM
- fext, f (mismatched 3′terminus)/f (matched terminus) ([1]; 3′-terminal base pair C · C): 2.3 × 10^−5
- Km [1, 6]: 0.02 µM
- Vmax [1, 6]: 308.0 % Min^−1
- Vmax ([1]; 3′-terminal base pair G · A (template base: 3′ primer base)): 2.4 % Min^−1
- Km ([1]; 3′-terminal base pair G · A): 22 µM
- fext, f (mismatched 3′terminus)/f (matched terminus) ([1]; 3′-terminal base pair G · A): 7.2 × 10^−6
- Vmax ([1]; 3′-terminal base pair G · G (template base: 3′ primer base)): 29.6 % Min^−1
- Km ([1]; 3′-terminal base pair G · G): 67 µM
- fext, f (mismatched 3′terminus)/f (matched terminus) ([1]; 3′-terminal base pair G · G): 2.9 × 10^−5
- primer extension on undamaged template (undamaged template): efficiently and rapidly extended primers to the end of the template
- processivity compared with wtTaq ([2]; even at the lowest enzyme concentrations): processivity equal (or higher) than wtTaq
- termination probability ([2]; positions 6 and 7): 1%
- extension of 3′ transversion mismatches in PCR [3]: greatly increased ability to extend; also recorded: generate amplification products
- size of PCR products with all four αS dNTPs [4]: up to 2 kbp

Reference: patent publication US9096835B2, “DNA polymerase” (Medical Research Council, priority 2003, dated 2015)
